Data as given in patent US20260139007A1 (SANFORD BURNHAM PREBYS MEDICAL DISCOVERY INSTITUTE, published 2026).
Numbered stars: 1 amine (or outer) side, 2 acyl side, 3 side chain; on linkers, the order of the positions; unused ones are H or OH. Bridge positions count the residues as written; N and C are the ends. Square brackets hold non-standard residues; d marks the D form. Side chains are listed from the residue outwards. Ends that are not written are not given here. * marks the point of attachment. γGlu = O=C(O)[C@H](CCC(=O)[*:2])N[*:1]; βAsp = O=C(O)[C@H](CC(=O)[*:2])N[*:1]; Palmitoyl = CCCCCCCCCCCCCCCC(=O)*; Lauroyl = CCCCCCCCCCCC(=O)*; Octanoyl = CCCCCCCC(=O)*; Dodecyl = CCCCCCCCCCCC*; βAla = NCCC(=O)O

B1: compound 14 (peptide)
peptide: XPYCVYRXSWSCGGKG
modifications: β-alanine at 1 and 8; lauroyl-γ-glutamic acid on the side chain of the Lys of the C-terminal GGKG; C-terminal amide; disulfide bond Cys4-Cys12 (cyclic)
notes: also called peptide 14
B2: compound 12 (peptide)
peptide: XPYCVYRXSWSCGGKG
modifications: β-alanine at 1 and 8; lauroyl on the side chain of the Lys of the C-terminal GGKG; C-terminal amide; disulfide bond Cys4-Cys12 (cyclic)
notes: also called peptide 12
B3: compound 4 (peptide)
peptide: [βAla]PYCVYK(Octanoyl)[βAla]SWSC-NH2
modifications: disulfide 4-12; N-terminus assumed
SMILES: CCCCCCCC(=O)NCCCC[C@@H]1NC(=O)[C@H](Cc2ccc(O)cc2)NC(=O)[C@H](C(C)C)NC(=O)[C@@H](NC(=O)[C@H](Cc2ccc(O)cc2)NC(=O)[C@@H]2CCCN2C(=O)CCN)CSSC[C@@H](C(N)=O)NC(=O)[C@H](CO)NC(=O)[C@H](Cc2c[nH]c3ccccc23)NC(=O)[C@H](CO)NC(=O)CCNC1=O
notes: also called peptide 4; βAPYCVYK(octanoyl)βASWSC-NH2
B4: compound 5 (peptide)
peptide: [βAla]PYCVYK(Octanoyl)[βAla]SWSCGGRG-NH2
modifications: disulfide 4-12; N-terminus assumed
SMILES: CCCCCCCC(=O)NCCCC[C@@H]1NC(=O)[C@H](Cc2ccc(O)cc2)NC(=O)[C@H](C(C)C)NC(=O)[C@@H](NC(=O)[C@H](Cc2ccc(O)cc2)NC(=O)[C@@H]2CCCN2C(=O)CCN)CSSC[C@@H](C(=O)NCC(=O)NCC(=O)N[C@@H](CCCNC(=N)N)C(=O)NCC(N)=O)NC(=O)[C@H](CO)NC(=O)[C@H](Cc2c[nH]c3ccccc23)NC(=O)[C@H](CO)NC(=O)CCNC1=O
notes: also called peptide 5
B5: compound 7 (peptide)
peptide: XPYCVYRXSWSCGGKG
modifications: β-alanine at 1 and 8; octanoyl on the side chain of the Lys of the C-terminal GGKG; C-terminal amide; disulfide bond Cys4-Cys12 (cyclic)
notes: also called peptide 7
B6: compound 6 (peptide)
peptide: [βAla]PYCVYK([Gly-octanyl])[βAla]SWSC-NH2
modifications: disulfide 4-12
notes: also called peptide 6; βAPYCVYK(octanyl-G)βASWSC-NH2
B7: compound 16 (peptide)
peptide: XPYCVYRXSWSCGGKG
modifications: β-alanine at 1 and 8; myristoyl-γGlu-γGlu on the side chain of the Lys of the C-terminal GGKG; C-terminal amide; disulfide bond Cys4-Cys12 (cyclic)
notes: also called peptide 16
B8: APY-d3-PEG4 (peptide)
peptide: XPYCVYRXSWSCXXX
modifications: β-alanine at 1 and 8; disulfide bond Cys4-Cys12 (Cyc (4,12)); three 6-aminohexanoic acid (Ahx) residues and propargyl-glycine (Pra) after Cys12; 30 kDa methoxy-PEG on Pra through a triazole (click chemistry); free C-terminal acid (-OH)
B9: APY-d3-PEG2 (peptide)
peptide: XPYCVYRXSWSCXXK
modifications: β-alanine at 1 and 8; disulfide bond Cys4-Cys12 (cyclic); 30 kDa methoxy-PEG joined through linker2 at the C-terminus (amide formation with 30 kDa methoxy-PEG-(CH2)5COO-NHS on precursor 1, βAPYCVYRβASWSCβAβAK-NH2, SEQ ID NO: 36)
notes: also called βAPYCVYRβASWSC-linker2-PEG
B10: compound 1 (peptide)
peptide: APYCVYK[βAla]SWSC-NH2
modifications: disulfide 4-12; N-terminus assumed
SMILES: CC(C)[C@@H]1NC(=O)[C@@H](NC(=O)[C@H](Cc2ccc(O)cc2)NC(=O)[C@@H]2CCCN2C(=O)[C@H](C)N)CSSC[C@@H](C(N)=O)NC(=O)[C@H](CO)NC(=O)[C@H](Cc2c[nH]c3ccccc23)NC(=O)[C@H](CO)NC(=O)CCNC(=O)[C@H](CCCCN)NC(=O)[C@H](Cc2ccc(O)cc2)NC1=O
notes: also called peptide 1; APYCVYKβASWSC-NH2
B11: APY-d3-PEG3 (peptide)
peptide: XPYCVYRXSWSCXK
modifications: β-alanine at 1 and 8; disulfide bond Cys4-Cys12 (cyclic); 30 kDa methoxy-PEG joined at the C-terminus through an oxime linkage (APY-d3-βAla-glyoxyl with methoxy-PEG-CONH(CH2)2-ONH2)
notes: also called βAPYCVYRβASWSC-linker3-PEG
B12: compound 3 (peptide)
peptide: [βAla]PYCVYK[βAla]SWSC-NH2
modifications: disulfide 4-12; N-terminus assumed
SMILES: CC(C)[C@@H]1NC(=O)[C@@H](NC(=O)[C@H](Cc2ccc(O)cc2)NC(=O)[C@@H]2CCCN2C(=O)CCN)CSSC[C@@H](C(N)=O)NC(=O)[C@H](CO)NC(=O)[C@H](Cc2c[nH]c3ccccc23)NC(=O)[C@H](CO)NC(=O)CCNC(=O)[C@H](CCCCN)NC(=O)[C@H](Cc2ccc(O)cc2)NC1=O
notes: also called peptide 3; βAPYCVYKβASWSC-NH2
B13: compound 10 (peptide)
peptide: [βAla]PYCVYK([βAsp-Lauroyl])[βAla]SWSC-NH2
modifications: disulfide 4-12; N-terminus assumed
SMILES: CCCCCCCCCCCC(=O)N[C@@H](CC(=O)NCCCC[C@@H]1NC(=O)[C@H](Cc2ccc(O)cc2)NC(=O)[C@H](C(C)C)NC(=O)[C@@H](NC(=O)[C@H](Cc2ccc(O)cc2)NC(=O)[C@@H]2CCCN2C(=O)CCN)CSSC[C@@H](C(N)=O)NC(=O)[C@H](CO)NC(=O)[C@H](Cc2c[nH]c3ccccc23)NC(=O)[C@H](CO)NC(=O)CCNC1=O)C(=O)O
notes: also called peptide 10; βAPYCVYK(lauroyl-βD)βASWSC-NH2
B14: compound 19 (peptide)
peptide: XPYCVYRXSWSCGGKG
modifications: β-alanine at 1 and 8; palmitoyl-γGlu-γGlu on the side chain of the Lys of the C-terminal GGKG; C-terminal amide; disulfide bond Cys4-Cys12 (cyclic)
notes: also called peptide 19
B15: compound 17 (peptide)
peptide: [βAla]PYCVYK([γGlu-Palmitoyl])[βAla]SWSC-NH2
modifications: disulfide 4-12; N-terminus assumed
SMILES: CCCCCCCCCCCCCCCC(=O)N[C@@H](CCC(=O)NCCCC[C@@H]1NC(=O)[C@H](Cc2ccc(O)cc2)NC(=O)[C@H](C(C)C)NC(=O)[C@@H](NC(=O)[C@H](Cc2ccc(O)cc2)NC(=O)[C@@H]2CCCN2C(=O)CCN)CSSC[C@@H](C(N)=O)NC(=O)[C@H](CO)NC(=O)[C@H](Cc2c[nH]c3ccccc23)NC(=O)[C@H](CO)NC(=O)CCNC1=O)C(=O)O
notes: also called peptide 17; βAPYCVYK(palmitoyl-γE)βASWSC-NH2
B16: compound 8 (peptide)
peptide: [βAla]PYCVYK(Lauroyl)[βAla]SWSC-NH2
modifications: disulfide 4-12; N-terminus assumed
SMILES: CCCCCCCCCCCC(=O)NCCCC[C@@H]1NC(=O)[C@H](Cc2ccc(O)cc2)NC(=O)[C@H](C(C)C)NC(=O)[C@@H](NC(=O)[C@H](Cc2ccc(O)cc2)NC(=O)[C@@H]2CCCN2C(=O)CCN)CSSC[C@@H](C(N)=O)NC(=O)[C@H](CO)NC(=O)[C@H](Cc2c[nH]c3ccccc23)NC(=O)[C@H](CO)NC(=O)CCNC1=O
notes: also called peptide 8; βAPYCVYK(lauroyl)βASWSC-NH2
B17: compound 11 (peptide)
peptide: [βAla]PYCVYK([γGlu-Lauroyl])[βAla]SWSC-NH2
modifications: disulfide 4-12; N-terminus assumed
SMILES: CCCCCCCCCCCC(=O)N[C@@H](CCC(=O)NCCCC[C@@H]1NC(=O)[C@H](Cc2ccc(O)cc2)NC(=O)[C@H](C(C)C)NC(=O)[C@@H](NC(=O)[C@H](Cc2ccc(O)cc2)NC(=O)[C@@H]2CCCN2C(=O)CCN)CSSC[C@@H](C(N)=O)NC(=O)[C@H](CO)NC(=O)[C@H](Cc2c[nH]c3ccccc23)NC(=O)[C@H](CO)NC(=O)CCNC1=O)C(=O)O
notes: also called peptide 11; βAPYCVYK(lauroyl-γE)βASWSC-NH2
B18: compound 20 (peptide)
peptide: [βAla]PYCVYR[βAla]SWSCGGGSK([γGlu-γGlu-Palmitoyl])G-NH2
modifications: disulfide 4-12; N-terminus assumed
SMILES: CCCCCCCCCCCCCCCC(=O)N[C@@H](CCC(=O)N[C@@H](CCC(=O)NCCCC[C@H](NC(=O)[C@H](CO)NC(=O)CNC(=O)CNC(=O)CNC(=O)[C@@H]1CSSC[C@H](NC(=O)[C@H](Cc2ccc(O)cc2)NC(=O)[C@@H]2CCCN2C(=O)CCN)C(=O)N[C@@H](C(C)C)C(=O)N[C@@H](Cc2ccc(O)cc2)C(=O)N[C@@H](CCCNC(=N)N)C(=O)NCCC(=O)N[C@@H](CO)C(=O)N[C@@H](Cc2c[nH]c3ccccc23)C(=O)N[C@@H](CO)C(=O)N1)C(=O)NCC(N)=O)C(=O)O)C(=O)O
notes: also called peptide 20
B19: APY-d3-PEG1 (peptide)
peptide: XPYCVYRXSWSCXXK
modifications: β-alanine at 1 and 8; disulfide bond Cys4-Cys12 (cyclic); 30 kDa methoxy-PEG joined through linker1 at the C-terminus (amide formation with 30 kDa methoxy-PEG succinimidyl carboxymethyl ester on precursor 1, βAPYCVYRβASWSCβAβAK-NH2, SEQ ID NO: 36)
notes: also called βAPYCVYRβASWSC-linker1-PEG
B20: compound 9 (peptide)
peptide: [βAla]PYCVYK([Gly-Dodecyl])[βAla]SWSC-NH2
modifications: disulfide 4-12
notes: also called peptide 9; βAPYCVYK(lauryl-G)βASWSC-NH2

Target: T1, EphA4 Fc (human EphA4 Fc, #CJ75, Novoprotein, or mouse EphA4 Fc, #641-A4, R&D Systems/BioTechne) (human or mouse, UniProt P54764 20-547)
T1 construct: extracellular domain; bought reagents; also called EphA4 extracellular domain fused to the Fc portion of an antibody; not shown: Fc portion of an antibody
Assay: competition ELISA, inhibition of ephrin-A5 AP binding to immobilized EphA4 Fc; 0 time point, compound diluted in mouse plasma in vitro (apparent IC50)

T1 sequence (P54764 20-547): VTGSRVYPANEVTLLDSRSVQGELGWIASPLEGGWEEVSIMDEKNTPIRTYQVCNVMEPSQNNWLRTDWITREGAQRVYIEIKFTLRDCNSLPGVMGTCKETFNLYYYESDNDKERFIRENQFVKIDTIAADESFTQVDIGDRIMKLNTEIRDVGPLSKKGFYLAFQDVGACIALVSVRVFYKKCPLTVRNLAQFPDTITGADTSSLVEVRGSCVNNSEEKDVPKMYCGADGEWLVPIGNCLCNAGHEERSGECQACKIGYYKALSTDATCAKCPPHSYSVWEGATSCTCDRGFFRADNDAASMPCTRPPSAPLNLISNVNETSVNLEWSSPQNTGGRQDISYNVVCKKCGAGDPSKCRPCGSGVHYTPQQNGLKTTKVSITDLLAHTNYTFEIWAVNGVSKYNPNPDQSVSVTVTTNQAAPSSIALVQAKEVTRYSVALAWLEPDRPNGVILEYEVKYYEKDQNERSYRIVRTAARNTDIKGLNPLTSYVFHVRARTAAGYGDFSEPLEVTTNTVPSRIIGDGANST

For B1, which IC50 is on record?
Its IC50 is 81 nM.

Target: T1, EphA4 Fc (human EphA4 Fc, #CJ75, …)
Assay: competition ELISA, inhibition of ephrin-A5 AP binding to immobilized EphA4 Fc, with 40 mg/mL delipidated HSA

B2 was tested. Which IC50 did it give?
The IC50 was 920 nM.

How did the IC50 turn out when B3 was run?
The IC50 was 100 nM.

With B4 as the binder, how does the IC50 read?
Its IC50 is 75 nM.

With B5 as the binder, how does the IC50 read?
Its IC50 is 110 nM.

With B6 as the binder, how does the IC50 read?
Its IC50 is 130 nM.

B7 was tested. Which IC50 did it give?
The IC50 was 1370 nM.

Target: FLAG-tagged EphA4 stably expressed in immortalized cells (HEK-EphA4 cells)
Assay: cell-based or functional assay

Which results are given for B8?
IC50 for inhibition of EphA4 tyrosine phosphorylation (pY596) induced by ephrin-A5 Fc in HEK-EphA4 cells, ELISA of cell lysates: ~700 nM; fold loss of potency against APY-d3, EphA4 tyrosine phosphorylation in HEK-EphA4 cells: ~2.5 fold

Target: T1, EphA4 Fc (human EphA4 Fc, #CJ75, …)
Assay: competition ELISA, inhibition of ephrin-A5 AP binding to immobilized EphA4 Fc

Which IC50 does the source give for B9 here?
The IC50 was 83 nM.

B10 was tested. Which IC50 did it give?
The IC50 was 67 nM.

Which IC50 does the source give for B2 here?
Its IC50 is 240 nM.

With B3 as the binder, how does the IC50 read?
The IC50 was 34 nM.

How did the IC50 turn out when B4 was run?
Its IC50 is 26 nM.

For B5, which IC50 is on record?
The IC50 was 34 nM.

With B11 as the binder, how does the IC50 read?
Its IC50 is 15 nM.

B6 was tested. Which IC50 did it give?
The IC50 was 42 nM.

Which IC50 does the source give for B12 here?
The IC50 was 70 nM.

How did the IC50 turn out when B13 was run?
Its IC50 is 110 nM.

B14 was tested. Which IC50 did it give?
The IC50 was 160 nM.

Which IC50 does the source give for B15 here?
Its IC50 is 2300 nM.

For B16, which IC50 is on record?
The IC50 was 390 nM.

For B17, which IC50 is on record?
Its IC50 is 84 nM.

Which IC50 does the source give for B18 here?
Its IC50 is 190 nM.

With B19 as the binder, how does the IC50 read?
Its IC50 is 180 nM.

For B20, which IC50 is on record?
The IC50 was 590 nM.

With B7 as the binder, how does the IC50 read?
Its IC50 is 77 nM.

Target: T1, EphA4 Fc (human EphA4 Fc, #CJ75, …)
Assay: competition ELISA, ephrin-A5 AP on immobilized EphA4 Fc

Which “fold decrease in potency against APY-d3 similarly modified with a C8 lipid” value does the source give for B16 here?
Its value is greater than 10 fold.

For B20, which “fold decrease in potency against APY-d3 similarly modified with a C8 lipid” value is on record?
The value was greater than 10 fold.

Target: T1, EphA4 Fc (human EphA4 Fc, #CJ75, …)
Assay: competition ELISA, inhibition of ephrin-A5 AP binding to immobilized EphA4 Fc, with serum albumin (40 mg/mL HSA by the text; the cell has no footnote)

Which IC50 does the source give for B10 here?
The IC50 was 55 nM.

Target: T1, EphA4 Fc (human EphA4 Fc, #CJ75, …)
Assay: competition ELISA, ephrin-A5 AP on immobilized EphA4 Fc, same experiments

B10 was tested. Which “fold decrease in potency (IC50) against APY-d2” value did it give?
The value was roughly 2 fold.

With B12 as the binder, how does the “fold decrease in potency (IC50) against APY-d3” value read?
Its value is roughly 2 fold.
